Source: PMC9079088, “FBXO2 targets glycosylated SUN2 for ubiquitination and degradation to promote ovarian cancer development” (Cell Death & Disease, 2022)

Molecular target: T1, HA-SUN2 (human (cDNA from 293T or A2780 cells), UniProt Q9UH99 1-717, N-glycosylation (sites not given))
T1 construct: SAD1/UNC84 domain protein-2 (SUN2), cloned from cDNAs of 293T or A2780 cells; also called SAD1/UNC84 domain protein-2; source: HEK293T, transiently transfected; immunoprecipitated with anti-HA resin and eluted with HA peptide, or in lysate
T1 sequence (looked up): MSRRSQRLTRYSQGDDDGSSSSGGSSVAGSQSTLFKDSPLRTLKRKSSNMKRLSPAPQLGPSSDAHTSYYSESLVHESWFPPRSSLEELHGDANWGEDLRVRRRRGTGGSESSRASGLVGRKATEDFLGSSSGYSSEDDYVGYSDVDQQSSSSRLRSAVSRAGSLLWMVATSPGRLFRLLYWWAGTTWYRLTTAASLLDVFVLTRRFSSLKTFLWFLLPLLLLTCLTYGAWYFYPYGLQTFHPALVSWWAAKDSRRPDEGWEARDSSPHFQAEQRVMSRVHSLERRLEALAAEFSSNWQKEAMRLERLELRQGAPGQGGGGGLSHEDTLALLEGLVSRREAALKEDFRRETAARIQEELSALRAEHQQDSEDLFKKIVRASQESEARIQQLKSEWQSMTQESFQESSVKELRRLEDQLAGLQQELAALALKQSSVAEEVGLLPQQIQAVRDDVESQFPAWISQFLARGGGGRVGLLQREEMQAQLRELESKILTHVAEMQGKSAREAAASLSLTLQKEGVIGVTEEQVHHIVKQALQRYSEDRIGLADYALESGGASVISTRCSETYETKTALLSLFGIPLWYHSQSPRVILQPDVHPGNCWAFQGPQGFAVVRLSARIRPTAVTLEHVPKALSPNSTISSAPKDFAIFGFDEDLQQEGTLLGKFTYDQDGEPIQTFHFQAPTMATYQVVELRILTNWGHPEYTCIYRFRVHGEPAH
Assay: pull-down; GST or GST-FBXO2 incubated with HA-SUN2 (anti-HA resin, eluted with HA peptide) in PB buffer (20 mM HEPES pH 7.5, 130 mM KCl, 5 mM MgCl2, 1 mM DTT, 0.5 mM EDTA, 0.05% NP40) at 30 °C for 2 h, then glutathione beads; the legend speaks of lysed cells
Conditions: both partners purified

- binding result: binds
B1: GST-FBXO2 WT (natural protein, human, UniProt Q9UK22 1-296, looked up)
chain: MDGDGDPESVGQPEEASPEEQPEEASAEEERPEDQQEEEAAAAAAYLDELPEPLLLRVLAALPAAELVQACRLVCLRWKELVDGAPLWLLKCQQEGLVPEGGVEEERDHWQQFYFLSKRRRNLLRNPCGEEDLEGWCDVEHGGDGWRVEELPGDSGVEFTHDESVKKYFASSFEWCRKAQVIDLQAEGYWEELLDTTQPAIVVKDWYSGRSDAGCLYELTVKLLSEHENVLAEFSSGQVAVPQDSDGGGWMEISHTFTDYGPGVRFVRFEHGGQDSVYWKGWFGARVTNSSVWVEP
notes: F-box protein FBXO2, human; also called GST tagged FBXO2
